Laboratory results from ChEMBL document CHEMBL2073952, “Na(+)-coupled transport of L-carnitine via high-affinity carnitine transporter OCTN2 and its subcellular localization in kidney” (Biochim Biophys Acta, 2001).

Substrate: C[N+](C)(C)CC(O)CC(=O)[O-]
Experiment: TP_TRANSPORTER: uptake in membrane vesicle from OCTN2-expressing HEK 293 cell
Format: functional, cell membranes, HEK293

B1: Organic cation/carnitine transporter 2 (Homo sapiens) (protein)
chain: MRDYDEVTAFLGEWGPFQRLIFFLLSASIIPNGFTGLSSVFLIATPEHRCRVPDAANLSSAWRNHTVPLRLRDGREVPHSCRRYRLATIANFSALGLEPGRDVDLGQLEQESCLDGWEFSQDVYLSTIVTEWNLVCEDDWKAPLTISLFFVGVLLGSFISGQLSDRFGRKNVLFVTMGMQTGFSFLQIFSKNFEMFVVLFVLVGMGQISNYVAAFVLGTEILGKSVRIIFSTLGVCIFYAFGYMVLPLFAYFIRDWRMLLVALTMPGVLCVALWWFIPESPRWLISQGRFEEAEVIIRKAAKANGIVVPSTIFDPSELQDLSSKKQQSHNILDLLRTWNIRMVTIMSIMLWMTISVGYFGLSLDTPNLHGDIFVNCFLSAMVEVPAYVLAWLLLQYLPRRYSMATALFLGGSVLLFMQLVPPDLYYLATVLVMVGKFGVTAAFSMVYVYTAELYPTVVRNMGVGVSSTASRLGSILSPYFVYLGAYDRFLPYILMGSLTILTAILTLFLPESFGTPLPDTIDQMLRVKGMKHRKTPSHTRMLKDGQERPTILKSTAF
In the case of B1, the Km is reported as 2.66 µM.
